In publication PMC8555152 one finds reduction of the binding in SQSTM1-depleted cells relative to the control siRNA data, which are given here for one substance.

For this experiment, the target named is microtubule associated protein 1 light chain 3 (LC3), endogenous (human (endogenous in HEK293T)) (UniProt Q9GZQ8). Put plainly: co-IP.

As for “HIV-1 NL4-3 Gag (p55), expressed from the provirus (natural protein)”, the reduction of the binding in SQSTM1-depleted cells relative to the control siRNA is 50%.
